Target: mAb-hERG1
Assay: SPR; Biacore T200; mAb-hERG1 bound to a Protein G pre-coated CM5 chip (7693 RU); S5-Pore applied at 10, 50, 100, 500 nM, single cycle kinetics; contact 30 s, dissociation 120 s, 30 ul/min

Chain of mAb-hERG1 (heavy, as listed by the source, chain 1 of 2): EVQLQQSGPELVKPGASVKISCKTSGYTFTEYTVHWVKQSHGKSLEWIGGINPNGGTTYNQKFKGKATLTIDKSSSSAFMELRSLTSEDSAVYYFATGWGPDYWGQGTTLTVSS
Chain of mAb-hERG1 (light, as listed by the source, chain 2 of 2): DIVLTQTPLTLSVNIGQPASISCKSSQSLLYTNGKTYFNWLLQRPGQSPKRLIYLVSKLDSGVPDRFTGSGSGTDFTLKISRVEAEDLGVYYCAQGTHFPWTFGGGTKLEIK

Binder: EQPHMDSRIGWLHN [S5-Pore peptide]
- Kd: 16.2 nM
- koff: 0.0258 s⁻¹
- kon: 1.6e+06 M⁻¹ s⁻¹
